# B1: mouse C1q protein (Complement Technology Cat #M099), biotin-conjugated (other)
# chain 1: EDVCRAPNGKDGAPGNPGRPGRPGLKGERGEPGAAGIRTGIRGFKGDPGESGPPGKPGNVGLPGPSGPLGDSGPQGLKGVKGNPGNIRDQPRPAFSAIRQNPMTLGNVVIFDKVLTNQESPYQNHTGRFICAVPGFYYFNFQVISKWDLCLFIKSSSGGQPRDSLSFSNTNNKGLFQVLAGGTVLQLRRGDEVWIEKDPAKGRIYQGTEADSIFSGFLIFPSA
# chain 2: QSSCTGPPGIPGIPGVPGVPGSDGQPGTPGIKGEKGLPGLAGDLGEFGEKGDPGIPGTPGKVGPKGPVGPKGTPGPSGPRGPKGDSGDYGATQKVAFSALRTINSPLRPNQVIRFEKVITNANENYEPRNGKFTCKVPGLYYFTYHASSRGNLCVNLVRGRDRDSMQKVVTFCDYAQNTFQVTTGGVVLKLEQEEVVHLQATDKNSLLGIEGANSIFTGFLLFPDMDA
# chain 3: SAGCYGIPGMPGMPGAPGKDGHDGLQGPKGEPGIPAVPGTRGPKGQKGEPGMPGHRGKNGPRGTSGLPGDPGPRGPPGEPGVEGRYKQKHQSVFTVTRQTTQYPEANALVRFNSVVTNPQGHYNPSTGKFTCEVPGLYYFVYYTSHTANLCVHLNLNLARVASFCDHMFNSKQVSSGGVLLRLQRGDEVWLSVNDYNGMVGIEGSNSVFSGFLLFPD
# Target: T1, tandem RBDs-Fc fusion protein (SARS-CoV-2 RBDs-Fc, FIG. 8C)
# T1 construct: also called RBDs-IgG Fc; tandem RBD-Fc
# Assay: ELISA, biotinylated C1q on coated protein
binder,measurement,value
B1,binding result,no binding (tested: C1q 2 µg/ml; 800-7.8 ng/well coated)
